Measurements reported in PMC10947486.
Where a chain is given by its changes, count along the chain named. Names and notes keep the numbering of the source.

B1: Aspartate/asparagine-β-hydroxylase (AspH) (Homo sapiens; H679A) (protein)
chain: RKTDDPEQKAKVKKKKPKLLNKFDKTIKAELDAAEKLRKRGKIEEAVNAFKELVRKYPQSPRARYGKAQCEDDLAEKRRSNEVLRGAIETYQEVASLPDVPADLLKLSLKRRSDRQQFLGHMRGSLLTLQRLVQLFPNDTSLKNDLGVGYLLIGDNDNAKKVYEEVLSVTPNDGFAKVHYGFILKAQNKIAESIPYLKEGIESGDPGTDDGRFYFHLGDAMQRVGNKEAYKWYELGHKRGHFASVWQRSLYNVNGLKAQPWWTPKETGYTELVKSLERNWKLIRDEGLAVMDKAKGLFLPEDENLREKGDWSQFTLWQQGRRNENACKGAPKTCTLLEKFPETTGCRRGQIKYSIMHPGTHVWPATGPTNCRLRMHLGLVIPKEGCKIRCANETKTWEEGKVLIFDDSFEHEVWQDASSFRLIFIVDVWHPELTPQQRRSLPAI
B2: Aspartate/asparagine-β-hydroxylase (AspH) (Homo sapiens) (protein)
chain: B1 chain with A365H
B3: Aspartate/asparagine-β-hydroxylase (AspH) (Homo sapiens; H725A) (protein)
chain: B1 chain with A365H, H411A

These proteins were tested on O=C(O)CCC(=O)C(=O)O (assay: purified protein). Details: Fe(II) active site Fe(II).
B1 showed a Km of 109 ± 20 µM, a kcat of 0.18 s⁻¹ and a kcat/Km of 1700 M⁻¹ s⁻¹. With B2 the Km was 1.1 ± 0.4 µM, the kcat was 0.31 s⁻¹ and the kcat/Km was 282000 M⁻¹ s⁻¹. For B3, the Km was 211 ± 65 µM, the kcat was 0.08 s⁻¹ and the kcat/Km was 380 M⁻¹ s⁻¹.
